The source of these data is patent US20260226160A1 (ISAR BIOSCIENCE, published 2026).

The target in assay [1] is T1, epitope peptide from the human TREM2 stalk region (DAGDLWFPG) (human).
T1 construct: also called human TREM2 peptide fragment
T1 peptide: DAGDLWFPG
In words: ELISA, coated epitope peptide SEQ ID NO: 16. On the procedure: (§1) Anti-TREM2 antibody binding to the extracellular domain of TREM2 (ecTREM2) or to the human or mouse peptide fragment of the stalk region of TREM2 were quantified in an ELISA assay. All procedures were performed at room temperature and incubations were done on a microtiter plate shaker. ELISA plate was coated with 60 μl/well (final concentration 0.5 μg/ml) of the according ligand (ecTREM2 (Hölzel Diagnostika, 11084-H08H) or human or mouse TREM2 peptide fragment) in coating buffer (NaHCO₃) for 1 h. The coated plate was washed three times with PBS-T (PBS, 0.1% Tween-20), blocked with 100 μl/well of blocking solution (PBS-T, 3% milk powder) for 1 h, and washed again. Antibodies were pre-diluted 1:10 in PBS and set to a concentration of 1 μg/ml. A dilution series was performed with dilution steps of 1:3 and 1:10. 50 μl/well of diluted AB were transferred to the blocked ELISA plate and incubated for 1 h. The plate was washed three times with PBS-T and incubated with anti-human-Strep-POD (Jackson Immunoresearch, #109-035-098) diluted in PBS-T 1:10000 for 1 h. After washing three times, bound POD was detected by incubation with 100 μl/well of TMB substrate (Thermo Scientific, #34029) until a maximal optical density (OD) of about 1 to 2 was reached. Finally, the colorimetric reaction was stopped with 100 μl/well stopping solution (1M H₂SO₄) and the OD determined at a wavelength of 450 nm with a reference wavelength of 595 nm in a plate reader (SpectraMax i3xl).
A general note: In an ELISA, binding on a coated surface is turned into a signal by an enzyme label.

Assay [2] deals with T2, extracellular domain of human TREM2 (ecTREM2), Hölzel Diagnostika 11084-H08H (human, UniProt Q9NZC2 19-174).
T2 construct: extracellular domain; also called human ecTREM2; ecTREM2 domain
T2 sequence (looked up): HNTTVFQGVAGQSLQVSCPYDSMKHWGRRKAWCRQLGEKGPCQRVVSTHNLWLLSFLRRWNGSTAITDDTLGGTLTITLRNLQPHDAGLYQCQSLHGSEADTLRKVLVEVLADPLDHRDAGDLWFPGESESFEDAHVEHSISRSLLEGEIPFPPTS
The assay can be described thus: ELISA, coated ecTREM2. Here is the method:
as §1
(§2) We determined the binding affinity of all antibody clones including M07 as well as of the control antibody H01 and negative control (not shown here), to ecTREM2 by an ELISA-based binding assay (FIG. 2).

Assay [3] deals with T3, human TREM2 (hTREM2) on cells (human, UniProt Q9NZC2 19-230).
T3 sequence (looked up): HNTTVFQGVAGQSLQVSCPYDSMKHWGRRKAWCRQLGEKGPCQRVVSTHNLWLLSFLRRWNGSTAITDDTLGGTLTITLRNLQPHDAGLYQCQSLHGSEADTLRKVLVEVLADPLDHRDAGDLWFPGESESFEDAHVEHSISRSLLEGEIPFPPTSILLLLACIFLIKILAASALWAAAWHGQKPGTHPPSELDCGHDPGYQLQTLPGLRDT
The assay can be described thus: cell-based or functional assay.

Assay [4] deals with T2, extracellular domain of human TREM2 …. In words: ELISA, coated ecTREM2 (0.5 µg/ml), antibody dilution series. On the procedure: as §1, with “A dilution series was performed with dilution steps of 1:3 and 1:10. 50 μl/well of diluted AB were transferred to the blocked ELISA plate and incubated for 1 h. The plate was washed three times with PBS-T and incubated with anti-human-Strep-POD (Jackson Immunoresearch, #109-035-098) diluted in PBS-T 1:10000 for 1 h.” left out
as §2

In assay [5] the target is T1, epitope peptide from the human TREM2 …. The assay can be described thus: ELISA, coated epitope peptide (0.5 µg/ml), antibody dilution series. Here is the method: as §1, with “The plate was washed three times with PBS-T and incubated with anti-human-Strep-POD (Jackson Immunoresearch, #109-035-098) diluted in PBS-T 1:10000 for 1 h.” left out
The target of assay [6] is T3, human TREM2 (hTREM2) on cells. In words: cell-based or functional assay. This is another data set of the same source.
Assay [7] has the same target. The assay can be described thus: printed with the p-SYK titration curve of M07 on HEK293-Flp-In hTREM2/hDAP12 cells (FIG. 6B); how it was derived is not told. Here is the method: Phosphorylated SYK (p-Syk) was measured using the AlphaLISA SureFire Ultra p-SYK Assay Kit (PerkinElmer, ALSU-PSYK-A-HV) following the manufacturer's instructions. Briefly, HEK293 cells overexpressing human TREM2 and human DAP12 were plated in 50 μl media at a density of 50,000 cells/well in a 96-well plate and incubated overnight at 37° C. in a cell culture incubator. The next day medium was removed and 50 μl of antibody diluted in medium was added to the cells. Following an incubation for 5 min at 37° C. treatment solutions were removed and cells were lysed with 50 μl lysis buffer supplemented with phosphatase inhibitor (VWR) for 10 min on a plate shaker (~350 rpm). 30 μl of lysate were then used for further incubation steps with acceptor and donor beads (each for 1 h) following analysis using a CLARIOstar^Plus Plate Reader (BMG Labtech).

Numbering of substitutions follows the chain as printed.

A word on the EC50: it is the concentration at which the effect is half-maximal. Higher therefore signals weaker potency. By Kd is commonly meant the equilibrium constant for the complex coming apart. Low values mean tighter binding, high ones weaker binding.

B1: antibody M03 (clone M03), fully human IgG1-LALA (antibody, V domains shown)
VH: EVQLVQSGGGLVQPGGSLRLSCAASGFTFSSYGITWVRQAPGKGLEWVSFISGGGSYTYYADSVKGRFTISRDNAKRTLYLQMNSLRAEDTAVYYCARSGRAYFDYWGQGTLVTVSS
VL: DIRLTQPPSVSGAPGQRVTISCSGSSSNIGSLFVSWYQQLPGTAPKLLIYSNSQHPSGVPDRFSGSKSGTSASLAITGLQAEDEADYYCSAYDQFSNSVVFGGGTKLTVLG
For B1, the EC50 in assay [1] came to 0.329 nM; in assay [2], 0.35 nM. For the same molecule, the “Mean values of fold increase over baseline (p-SYK AlphaLISA, 40 µg/ml antibody, HEK293-Flp-In hTREM2/hDAP12)” value in assay [3] worked out at 9.39 fold.

B2: antibody M05 (clone M05), fully human IgG1-LALA (antibody, V domains shown)
VH: EVQLLESGGGLVQPGGSLRLSCAASGFTFSSNAMTWVRQAPGKGLEWVSVIGSSGSYTYYADSVKGRFTISRDNSKNTLYLQMNSLRAEDTAVYYCARSGTTGFDYWGQGTLVTVSS
VL: B1 VL with R3V, L4M, G12V, A13T, S23R, G24S, G111R
In the case of B2, the binding result in assay [4] and in assay [5] was “no binding” throughout. In addition, the “Mean values of fold increase over baseline (p-SYK AlphaLISA, 40 µg/ml antibody, HEK293-Flp-In hTREM2/hDAP12)” value in assay [3] is 1.07 fold.

B3: antibody M07 (clone M07), fully human anti-hTREM2 IgG1-LALA-TFN (antibody, V domains shown)
VH: EVQLLESGGGLVQPGGSLRLTCAASGFTFSSYAMSWVRQAPGKGLEWVSVINGRGSNTYYADSVKGRFTITRDNSKNTLYLEMNSLRAEDTAVYYCARVRAYSGPSYGFDYWGQGTLVTVSS
VL: DIQLTQSPLSLSASAGDRVTITCRASQSIRDYLGWYQQKPGKAPKLLIYAASKLQSGVPSRFSGSGSGTDFTLTISSLQPEDFATYYCQQSYHTPPFTFGQGTKVEIKR
notes: leaders are cleaved off; also called anti-hTREM2 antibody M07; MO7
In the case of B3, the response in assay [1] was half-maximal at 0.335 nM (EC50). Moreover, in assay [6], the “EC50 of p-SYK signaling titration in HEK293-Flp-In hTREM2/hDAP12” value was 4.39 nM and the “SYK phosphorylation, fold increase” value was at most 60 fold. The EC50 in assay [2] turned out to be 0.204 nM. For the same molecule, the dissociation constant (Kd) in assay [7] stood at 2.19 nM. Moreover, the “Mean values of fold increase over baseline (p-SYK AlphaLISA, 40 µg/ml antibody, HEK293-Flp-In hTREM2/hDAP12)” value in assay [3] is 36.1 fold.

B4: antibody H08 (clone H08), fully human IgG1-LALA (antibody, V domains shown)
VH: EVQLVQSGGGLVQPGGSLRLSCAASGFTFSSYAMSWVRQAPGKGLEWVSAISGSGGSTYYADSVKGRFTISRDNAKRSLYLQMNDLRVEDTAVYYCARTRTNVFDFWGQGTMVTVSS
VL: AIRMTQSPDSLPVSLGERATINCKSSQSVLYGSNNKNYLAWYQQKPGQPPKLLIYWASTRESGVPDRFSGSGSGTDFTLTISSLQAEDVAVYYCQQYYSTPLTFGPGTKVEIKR
Turning to B4, the EC50 in assay [1] stood at 0.832 nM; in assay [2], 0.19 nM. The “Mean values of fold increase over baseline (p-SYK AlphaLISA, 40 µg/ml antibody, HEK293-Flp-In hTREM2/hDAP12)” value in assay [3] was 3.22 fold.
